IC50 data for 15 molecules are collected here from US20240116985A1 (published 2024).

In general, IC50 refers to the midpoint of a concentration-inhibition curve.

Starred links: 1 amine or outer side, 2 acyl side, 3 side chain; linkers in the order of their positions; H or OH if unused. Positions of bridges follow the written chain, without caps; N, C: chain ends. Non-standard residues stand in square brackets, D forms with d. Primed or numbered codes have the meaning given here. B5(16) = 2-amino-2-(pent-4-en-1-yl)hept-6-enoic acid = 2,2-bis(4-pentenyl)glycine (stitching residue), C=CCCCC(CCCC=C)(N[*:1])C(=O)[*:2]; B5(5) = 2,2-bis(4-pentenyl)glycine, 2-amino-2-(pent-4-en-1-yl)hept-6-enoic acid (stitching residue), C=CCCCC(CCCC=C)(N[*:1])C(=O)[*:2]; B5(9) = 2-amino-2-(pent-4-en-1-yl)hept-6-enoic acid (2,2-bis(4-pentenyl)glycine), C=CCCCC(CCCC=C)(N[*:1])C(=O)[*:2]; B5(19) = 2-amino-2-(pent-4-en-1-yl)hept-6-enoic acid (bis(4-pentenyl)glycine), C=CCCCC(CCCC=C)(N[*:1])C(=O)[*:2]; 23FF = 2,3-difluoro-L-phenylalanine, O=C([C@H](Cc1cccc(F)c1F)N[*:1])[*:2]; Phe(3,5-F2) = N[C@@H](Cc1cc(F)cc(F)c1)C(=O)O; d(βAsp) = O=C(O)[C@@H](CC(=O)[*:2])N[*:1]; βAsp = O=C(O)[C@H](CC(=O)[*:2])N[*:1]; Bta = N[C@@H](Cc1csc2ccccc12)C(=O)O; αAllylPro = C=CC[C@@]1(C(=O)O)CCCN1; S8 = C=CCCCCCC[C@](C)(N)C(=O)O

To fix the notation:
T1: full-length beta-Catenin (Uniprot ID P35222) (Homo sapiens (Human), UniProt P35222 1-781)
T1 construct: also called bCat; B-Catenin
T1 sequence: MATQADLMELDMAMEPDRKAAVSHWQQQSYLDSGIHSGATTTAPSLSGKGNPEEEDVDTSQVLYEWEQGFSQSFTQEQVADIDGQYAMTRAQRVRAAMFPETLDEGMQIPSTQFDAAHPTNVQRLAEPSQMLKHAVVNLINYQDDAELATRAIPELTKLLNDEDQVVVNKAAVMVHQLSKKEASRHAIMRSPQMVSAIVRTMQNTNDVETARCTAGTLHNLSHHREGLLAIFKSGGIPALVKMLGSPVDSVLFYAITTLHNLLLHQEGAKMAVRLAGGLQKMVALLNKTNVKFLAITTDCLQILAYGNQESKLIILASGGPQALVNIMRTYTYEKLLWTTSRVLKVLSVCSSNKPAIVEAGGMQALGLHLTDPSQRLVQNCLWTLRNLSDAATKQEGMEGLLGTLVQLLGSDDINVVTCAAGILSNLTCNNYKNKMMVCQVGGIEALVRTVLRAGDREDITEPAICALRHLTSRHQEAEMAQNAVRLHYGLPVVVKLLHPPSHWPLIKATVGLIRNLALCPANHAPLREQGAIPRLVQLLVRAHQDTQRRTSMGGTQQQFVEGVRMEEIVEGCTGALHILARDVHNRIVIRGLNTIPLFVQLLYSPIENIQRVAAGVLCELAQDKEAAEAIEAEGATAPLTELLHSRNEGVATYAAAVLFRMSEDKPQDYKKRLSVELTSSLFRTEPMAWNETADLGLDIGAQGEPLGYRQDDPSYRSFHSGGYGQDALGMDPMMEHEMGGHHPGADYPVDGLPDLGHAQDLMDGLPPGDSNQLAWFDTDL

T2: full-length beta-Catenin (Uniprot ID P35222) (Homo sapiens (Human), UniProt P35222 1-781)
T2 construct: The assay text says full-length beta-Catenin (Uniprot ID P35222); also called bCat; B-Catenin
T2 sequence: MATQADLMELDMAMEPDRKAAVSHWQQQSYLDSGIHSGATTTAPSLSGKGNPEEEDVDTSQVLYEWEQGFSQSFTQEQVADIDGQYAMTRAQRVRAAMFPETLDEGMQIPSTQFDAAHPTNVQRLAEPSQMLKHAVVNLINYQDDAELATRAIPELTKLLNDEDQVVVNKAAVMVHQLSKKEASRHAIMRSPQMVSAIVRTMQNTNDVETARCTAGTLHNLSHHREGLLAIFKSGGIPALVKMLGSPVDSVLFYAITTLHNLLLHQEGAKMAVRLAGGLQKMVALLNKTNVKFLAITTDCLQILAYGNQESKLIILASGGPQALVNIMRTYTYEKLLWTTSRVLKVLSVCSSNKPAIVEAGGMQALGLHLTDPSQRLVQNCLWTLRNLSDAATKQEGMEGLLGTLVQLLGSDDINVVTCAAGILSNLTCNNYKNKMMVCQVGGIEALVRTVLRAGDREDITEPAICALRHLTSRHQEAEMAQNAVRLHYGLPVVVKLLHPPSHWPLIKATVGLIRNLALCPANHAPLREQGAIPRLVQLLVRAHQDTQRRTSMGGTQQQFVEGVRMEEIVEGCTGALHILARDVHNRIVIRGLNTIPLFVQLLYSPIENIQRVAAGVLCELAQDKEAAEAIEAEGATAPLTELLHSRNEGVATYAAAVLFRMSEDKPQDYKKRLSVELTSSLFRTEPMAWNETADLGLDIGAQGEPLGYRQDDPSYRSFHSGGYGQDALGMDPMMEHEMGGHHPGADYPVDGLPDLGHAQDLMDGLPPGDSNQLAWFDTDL

B1: I-661 (peptide)
peptide: XDIXDEASFQXFXQ
modifications: not fully specified; Ac-PL3-Asp-Ile-B5-Asp-Glu-Ala-Ser-Phe-Gln-S8-Phe-BztA-Gln-NH2; N-terminal acetyl, C-terminal amide; PL3(1), B5(4), S8(11) stapled by olefin metathesis (1-4 and 4-11); BztA at 13
notes: Stapled peptide
B2: I-659 (peptide)
peptide: XDIXDEALFQXFXQ
modifications: not fully specified; Ac-PL3-Asp-Ile-B5-Asp-Glu-Ala-Leu-Phe-Gln-S8-Phe-BztA-Gln-NH2; N-terminal acetyl, C-terminal amide; PL3(1), B5(4), S8(11) stapled by olefin metathesis (1-4 and 4-11); BztA at 13
notes: Stapled peptide
B3: I-658 (peptide)
peptide: XDIXDEALFQXFXQ
modifications: not fully specified; Ac-PL3-Asp-Ile-B5-Asp-Glu-Ala-Leu-Phe-Gln-S8-Phe-BztA-Gln-NH2; N-terminal acetyl, C-terminal amide; PL3(1), B5(4), S8(11) stapled by olefin metathesis (1-4 and 4-11); BztA at 13
notes: Stapled peptide
B4: I-389 (peptide)
peptide: Ac-[αAllylPro]DA[B5(9)]DEAAFV[S8][23FF][Bta]Q-NH2
modifications: staple 1-4, 4-11; also: later eluting HPLC isomer, E/Z not assigned
notes: Stapled peptide; also called Ac-PL3-Asp-Ala-B5-Asp-Glu-Ala-Ala-Phe-Val-S8-23FF-BztA-Gln-NH2
B5: I-391 (peptide)
peptide: Ac-[αAllylPro]DA[B5(9)]DEAA[23FF]V[S8]F[Bta]Q-NH2
modifications: staple 1-4, 4-11; also: later eluting HPLC isomer, E/Z not assigned
notes: Stapled peptide; also called Ac-PL3-Asp-Ala-B5-Asp-Glu-Ala-Ala-23FF-Val-S8-Phe-BztA-Gln-NH2
B6: I-390 (peptide)
peptide: Ac-[αAllylPro]DA[B5(9)]DEAA[23FF]V[S8]F[Bta]Q-NH2
modifications: staple 1-4, 4-11; not fully specified; printed as Ac-PL3-Asp-Ala-B5-Asp-Glu-Ala-Ala-23FF-Val-S8-Phe-BztA-Gln-NH2
notes: as for B5
B7: I-394 (peptide)
peptide: Ac-[αAllylPro]DA[B5(9)]DEAAFV[S8][Phe(3,5-F2)][Bta]Q-NH2
modifications: staple 1-4, 4-11
notes: Stapled peptide; also called Ac-PL3-Asp-Ala-B5-Asp-Glu-Ala-Ala-Phe-Val-S8-35FF-BztA-Gln-NH2

One assay deals with T1, full-length beta-Catenin (Uniprot ID …). Description: fluorescence polarization competition; full-length beta-catenin, competitor 5FAM-TCF4(10-53) probe. A digest of the protocol:
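Incubate 60 minutes at 20° C. away from light, then read polarization in duplicate. Fit to 1:1 binding with hill slope.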
(In fluorescence polarisation assays a small probe gives low polarisation when free and higher when bound to something large.)
Regarding Ac-[αAllylPro]DI[B5(19)]DEAQFQ[S8]F[Bta]Q-NH2 (staple 1-4, 4-11, Stapled peptide) [I-663], the IC50 amounted to 43 nM.

As for Ac-[αAllylPro]DI[B5(9)]DEAWFQ[S8]F[Bta]Q-NH2 (staple 1-4, 4-11, Stapled peptide) [I-664], the IC50 worked out at 996 nM.

Ac-[αAllylPro]DI[B5(9)]DEAWFQ[S8]F[Bta]Q-NH2 (staple 1-4, 4-11, Stapled peptide) [I-665] gave an IC50 of 923 nM.

On to Ac-[αAllylPro]DI[B5(19)]DEAFFQ[S8]F[Bta]Q-NH2 (staple 1-4, 4-11, Stapled peptide) [I-660], for which the IC50 came out at 544 nM.

Molecule B1 registered an IC50 of 45 nM.

On to B2, for which the IC50 worked out at 430 nM.

B3 came in with an IC50 of 546 nM.

In turn, Ac-[αAllylPro]DI[B5(16)]DEWAFQ[S8]F[Bta]Q-NH2 (staple 1-4, 4-11, Stapled peptide) [I-655] yielded an IC50 of 183 nM.

For the molecule Ac-[αAllylPro]DI[B5(16)]DESAFQ[S8]F[Bta]Q-NH2 (staple 1-4, 4-11, Stapled peptide) [I-652], the IC50 was 72 nM.

Molecule Ac-[αAllylPro]DI[B5(9)][βAsp]EAAFQ[S8]F[Bta]Q-NH2 (staple 1-4, 4-11, Stapled peptide) [I-673] yielded an IC50 of 5000 nM.

Ac-[αAllylPro]DI[B5(5)][d(βAsp)]EAAFQ[S8]F[Bta]Q-NH2 (staple 1-4, 4-11, Stapled peptide) [I-674] showed an IC50 of 5000 nM.

The target in a further assay is T2, full-length beta-Catenin (Uniprot ID …). The assay is described as follows: fluorescence polarization competition; full-length beta-catenin with 5FAM-labeled TCF4 (residues 10-53) probe as competitor. As for the experimental part:
The plate was incubated protected from light for 60 minutes at 20° C. prior to read. Reads were performed on a CLARIOstar plate reader (BMG Labtech) in duplicate, and data were fitted to a 1:1 binding model with hill slope using an in-house script. All provided concentrations are final concentrations.
As to B4, the IC50 came out at 5000 nM.

B5 displayed an IC50 of 1910 nM.

For the molecule B6, the IC50 is 3420 nM.

Turning to B7, the IC50 was found to be 5000 nM.
